We go through one molecule from article PMC3985291 (Cell reports, 2014).

As usually defined, the Kd is the equilibrium constant for the complex coming apart.

The target of this experiment is Keap1 Kelch domain (recombinant) (human, UniProt Q14145 321-609). The experiment is described as follows: ITC. (In general: In ITC the heat of successive injections is recorded.)
Keap1 Kelch domain (recombinant), sequence (Q14145 321-609): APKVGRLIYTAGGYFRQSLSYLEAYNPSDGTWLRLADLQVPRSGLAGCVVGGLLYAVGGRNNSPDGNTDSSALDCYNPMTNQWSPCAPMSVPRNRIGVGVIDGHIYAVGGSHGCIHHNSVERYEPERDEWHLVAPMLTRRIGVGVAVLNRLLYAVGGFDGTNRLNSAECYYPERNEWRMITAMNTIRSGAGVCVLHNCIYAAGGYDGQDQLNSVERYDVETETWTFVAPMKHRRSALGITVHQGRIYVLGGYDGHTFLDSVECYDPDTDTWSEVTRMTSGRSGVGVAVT

B1: Marburg virus VP24 (recombinant, used for ITC) (natural protein)
chain: MAELSTRYNLPANVTENSINLDLNSTARWIKEPSVGGWTVKWGNFVFHIPNTGMTLLHHLKSNFVVPEWQQTRNLFSHLFKNPKSTIIEPFLALRILLGVALKDQELQQSLIPGFRSIVHMLSEWLLLEVTSAIHISPNLLGIYLTSDMFKILMAGVKNFFNKMFTLHVVNDHGKPSSIEIKLTGQQIIITRVNMGFLVEVRRIDIEPCCGETVLSESVVFGLVAEAVLREHSQMEKGQPLNLTQYMNSKIAI
Regarding B1, the Kd is 158 ± 20 nM.
